One data set addresses bovine serum albumin (Bos taurus, UniProt P02769 P02769:25-607). The data set is described as follows: AC voltammetry specificity control; 50 ng/mL BSA in PBS gave little change on aptamer-functionalised gold disk electrode. The following applies: label: methylene blue.
Data set [1] concerns the target recombinant troponin I (cardiac troponin I) (UniProt P19429 P19429:2-210). The data set is described as follows: AC voltammetry; MB redox current decreases on troponin I exposure; aptamer immobilised on gold microstructures in perfused pig skin (600 ng/mL perfusate) and on gold disk electrode in 150 mM PBS pH 7.4. The following applies: label: methylene blue.

This note sets out measurements from US20210338158A1, “MEASUREMENT SYSTEM” (WearOptimo Pty Ltd, published 2021).

Chain of recombinant troponin I (cardiac troponin I) (P19429 2-210, one chain of several): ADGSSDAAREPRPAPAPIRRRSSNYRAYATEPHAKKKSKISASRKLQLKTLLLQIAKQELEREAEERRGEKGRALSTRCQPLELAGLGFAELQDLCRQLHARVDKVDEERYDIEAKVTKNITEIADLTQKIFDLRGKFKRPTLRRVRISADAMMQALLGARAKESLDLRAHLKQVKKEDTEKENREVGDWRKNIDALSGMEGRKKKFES
Chain of bovine serum albumin (P02769 25-607, one chain of several): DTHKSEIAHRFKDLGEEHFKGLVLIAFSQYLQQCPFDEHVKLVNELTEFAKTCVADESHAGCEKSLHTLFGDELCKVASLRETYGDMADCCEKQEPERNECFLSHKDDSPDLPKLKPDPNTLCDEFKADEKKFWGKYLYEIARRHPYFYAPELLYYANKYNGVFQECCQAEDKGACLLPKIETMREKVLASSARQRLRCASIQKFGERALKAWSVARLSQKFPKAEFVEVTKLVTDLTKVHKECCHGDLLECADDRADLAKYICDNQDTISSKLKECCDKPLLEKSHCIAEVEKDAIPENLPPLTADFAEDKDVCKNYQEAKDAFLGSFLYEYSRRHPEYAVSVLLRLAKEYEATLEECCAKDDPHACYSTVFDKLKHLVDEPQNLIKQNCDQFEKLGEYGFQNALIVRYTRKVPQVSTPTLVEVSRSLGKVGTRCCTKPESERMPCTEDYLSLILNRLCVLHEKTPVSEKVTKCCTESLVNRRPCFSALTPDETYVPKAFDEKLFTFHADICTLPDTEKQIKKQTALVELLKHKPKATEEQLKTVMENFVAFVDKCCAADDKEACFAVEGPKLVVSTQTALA

B1: troponin I aptamer (thiol/methylene blue) (ssDNA)
DNA: AGTCTCCGCTGTCCTCCCGATGCACTTGACGTATGTCTCACTTTCTTTTCATTGACATGGGATGACGCCGTGACTG
modifications: 5'-SH-(CH2)6, 3'-methylene blue
For B1, the results for the binding result (in the data set with bovine serum albumin; in data set [1]) were “no binding” and “binds”, respectively.
